Results: PMC6901335

Target: Recombinant MFG-E8 Protein (unlabelled, bound to NL4.3-GFP VLPs) (not stated (human or mouse recombinant protein bought)) (UniProt P21956)
Test: flow cytometry of viral-like particles; 1 × 10^4 NL4.3-GFP VLPs in 20 μl of 1% BSA/PBS or 1 × HBSS (1 mM Ca2+, 2 mM Mg2+, 1 mM Mn2+, 0.5% fatty acid free BSA) with MFG-E8 (5 μg/ml) and integrin αvβ3 (5 μg/ml) on ice for 30 min; bound proteins detected by αv and MFG-E8 antibodies

Chain of UniProt P21956 (P21956 23-463): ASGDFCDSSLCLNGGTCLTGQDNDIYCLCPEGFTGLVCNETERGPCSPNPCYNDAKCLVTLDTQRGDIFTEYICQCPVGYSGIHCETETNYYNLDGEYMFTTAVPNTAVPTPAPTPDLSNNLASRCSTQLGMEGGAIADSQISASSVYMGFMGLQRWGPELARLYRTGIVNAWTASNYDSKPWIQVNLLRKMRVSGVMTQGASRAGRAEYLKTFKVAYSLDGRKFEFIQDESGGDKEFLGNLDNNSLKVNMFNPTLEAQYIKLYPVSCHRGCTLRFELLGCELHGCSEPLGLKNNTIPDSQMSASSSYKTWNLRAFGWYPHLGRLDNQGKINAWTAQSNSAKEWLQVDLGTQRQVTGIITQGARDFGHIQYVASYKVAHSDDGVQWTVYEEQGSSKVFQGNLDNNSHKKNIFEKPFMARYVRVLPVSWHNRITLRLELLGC

Recombinant Human Integrin alpha V beta 3 Protein (from UniProt P06756 31-1048; P05106 27-718) (receptor)
percent of VLPs αvβ3/MFG-E8 positive: 80%
